Reference: the supplement of paper PMC10126150
± gives the standard deviation of the averaged measurements.

System: ATP
Test: switch fluorescence ratio, 500 uM ATP over buffer (Cy3 cluster intensity, sum of 5 cycles each) (fold (ratio)); higher = stronger signal-on switching upon ATP binding; sequences stand for … in TCGTCGGCAGCGTCAGATGTGTATAAGAGACAGTTTTTTTTTTTTTTTTTTTTTTTTT…TC
Conditions: aptamer strand: ATP DNA aptamer (quencher-CACCTGGGGGAGTATTGCGGAGGAAGG + anchor), 100 nM annealed; ATP concentration: 500 uM
In short: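 The fluorescence ratio divides summed target-cycle Cy3 intensity by summed buffer-cycle Cy3 intensity for each cluster and is averaged per switch-domain sequence. Cy3-labelled switching-strand clusters on a modified Illumina MiSeq flow-cell were annealed to 100 nM quencher-labelled ATP aptamer, then imaged in selection buffer and again after 15 min with 500 uM ATP at 22 °C. Five such cycles were run, with NaOH stripping and re-annealing between them, and clusters outside 100-1000 RFU were excluded.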
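Also: ATP exposure 15 min at 22 °C before imaging.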

Point of comparison: TGTTAAGGGG, switch fluorescence ratio 1.18 ± 0.21. Against it:
- CCAGACGTTT — within error, 1.037 ± 0.0073
- TTAGGACCCT — within error, 1.01 ± 0.041
- GCGGTGGGGA — within error, 1.03 ± 0.027
- ATGGAGAGAA — within error, 1.01 ± 0.039
- CCTTGGTCTT — within error, 0.9979 ± 0.009
- GTTGTAGCAC — within error, 1.07 ± 0.029
- TAGTAATCTT — within error, 1.003 ± 0.0092
- ATGCTTTGGG — within error, 1.036 ± 0.0061
- ATTGAAAGTG — within error, 0.9859 ± 0.0074
- TTTGTGGGCC — within error, 1.03 ± 0.093
- TCTCTGGTTA — within error, 1.01 ± 0.018
- TTAAGAGGTT — within error, 0.9708 ± 0.0065
- CTAGGTTTGA — within error, 0.987 ± 0.019
- AATCGGTAGG — within error, 1.01 ± 0.027
- TTTGTATTAC — within error, 1.32 ± 0.38
- CTGGCAGTGG — within error, 1.05 ± 0.054
- TTAGATGGTT — within error, 0.984 ± 0.021
- CAACCGTGAA — within error, 1.91 ± 0.92
- TTACTTCTCA — within error, 1 ± 0.011
- GGTTATACGA — within error, 1.034 ± 0.0054
- ACGGCCTTAT — within error, 0.991 ± 0.033
- CGACTAAAAT — within error, 1.013 ± 0.0066
- GCCGAACCTC — within error, 1.28 ± 0.037
- GAGTAGGCGC — within error, 0.955 ± 0.032
- ATCGGTAACT — within error, 1.01 ± 0.032
- TAACAACGTA — within error, 1.066 ± 0.0064
- TTCAGTGATT — within error, 1 ± 0.022
- TTCAGTAGAG — within error, 1.03 ± 0.024
- TTGATGTAAA — within error, 0.997 ± 0.033
- CATTAATTGT — within error, 1.025 ± 0.0034
- AAAATTTAAC — within error, 1.01 ± 0.023
- GGGAATTTGC — within error, 1 ± 0.036
- TAAGTTGTTG — within error, 0.993 ± 0.042
- GGTTATTGAG — within error, 0.9799 ± 0.0044
- GTTATAGGAG — within error, 0.99 ± 0.019
- TAGAAGTAGG — within error, 1.01 ± 0.037
- GCTCCAATCG — within error, 1.13 ± 0.049
- GAAGGGGATT — within error, 1.015 ± 0.01
- TAGACAAGAT — within error, 1.04 ± 0.0028
- TTGGCGGGCG — within error, 0.979 ± 0.034
- TCGGGGGCGA — within error, 1.13 ± 0.17
- ATCAGTGTGG — within error, 0.967 ± 0.038
- CCTAGGTTTC — within error, 0.981 ± 0.035
- TGGTTTTGTG — within error, 0.9862 ± 0.0015
- ACAGCGCGAC — within error, 1.32 ± 0.017
- CTTAGATTTT — within error, 0.988 ± 0.025
- ATTTAGGGGT — within error, 1.02 ± 0.057
- TTGCGGGGGT — within error, 1 ± 0.054
- TTAGGTTGGT — within error, 1 ± 0.065
- TTGCGTAGGC — within error, 0.994 ± 0.034
- TTTTTTTTTA — within error, 1.01 ± 0.022
- ACGCGGAGTA — within error, 0.997 ± 0.038
- TACTCAGGTT — within error, 2.25 ± 1.8
- CATTTAGACG — within error, 1.01 ± 0.11
- ACTAAAGGGC — within error, 1.07 ± 0.034
- TGCTAGCCTG — within error, 0.9955 ± 0.004
- CTTGAAGGGA — within error, 0.995 ± 0.029
- GAGCACAGGT — higher, 2.33 ± 0.12
- ATGGGCCCCT — within error, 0.987 ± 0.025
- AATTGCGTTG — within error, 0.979 ± 0.025
- TTTCGGAATT — within error, 1.35 ± 0.48
- GGTTATAATT — within error, 1.004 ± 0.0011
- TATGTTTTGA — within error, 0.994 ± 0.033
- TTTGTTAAAA — within error, 1.04 ± 0.061
- TTGGAATTTT — within error, 1.03 ± 0.031
- GGCATGCCAT — within error, 0.9908 ± 0.0077
- AATAATCGCC — within error, 1 ± 0.05
- ACCGGGGATT — within error, 1 ± 0.018
- GGCAATCGAA — within error, 1.1145 ± 0.00045
- TTAGTGCCGG — within error, 0.994 ± 0.016
- CTAGGGGTTT — within error, 1 ± 0.034
- ACGACAGCAG — within error, 1.39 ± 0.033
- GAGTTCCGGG — within error, 1.01 ± 0.024
- TTGGTTGGCG — within error, 0.992 ± 0.041
- GCTGGTGTGG — within error, 0.995 ± 0.011
- GAAGCTAGAA — within error, 1.52 ± 0.3
- GGGACTGGGA — within error, 1 ± 0.031
- AGAGGAATTT — within error, 1.01 ± 0.02
- GGTTTCTGCT — within error, 1.02 ± 0.03
- GTCAGGAATT — within error, 0.9981 ± 0.0062
- CCACACGAGA — the same, 1.18 ± 0.066
- ATGGGGTTCT — within error, 0.992 ± 0.022
- GAAATTAGTT — within error, 0.991 ± 0.018
- GGCGCAAGGA — within error, 2.41 ± 1.9
- GGGCAAACTT — within error, 1.02 ± 0.018
- AGGGCACAGT — within error, 0.995 ± 0.016
- TATTTAAAAA — within error, 1.01 ± 0.035
- TCCCGCGGCT — within error, 1.08 ± 0.045
- GGATATTGTC — within error, 0.991 ± 0.024
- CTGGGAGGTT — within error, 0.97 ± 0.05
- AATGTTTTAC — within error, 0.97 ± 0.035
- TATTTAGCCC — within error, 1.047 ± 0.0069
- GCAAAAGGGG — within error, 0.977 ± 0.027
- TTTTGATAGA — within error, 1 ± 0.058
- ATCCGGGCGC — within error, 1.08 ± 0.1
- CCAGCTTCTG — within error, 1 ± 0.065
- GCACTATAGG — within error, 0.999 ± 0.011
- GGCTAAGACT — within error, 0.988 ± 0.024
- TTCGGGTTAT — within error, 1.01 ± 0.049
- GCTGAGGCAG — within error, 1.002 ± 0.0046
- GCGTCACGTC — within error, 1.05 ± 0.054
- GATCTACAGC — within error, 1.02 ± 0.024
- GTTTAGAAAG — within error, 1.01 ± 0.017
- TTTTAACTTT — within error, 1.03 ± 0.052
- GCGGGCGTTC — within error, 1.0164 ± 0.0005
- GGGAGATAGA — within error, 0.982 ± 0.052
- CTGCGTCTAT — within error, 1.08 ± 0.025
- AAAAAGTGGT — within error, 0.9827 ± 0.0041
- TGGTTCTAG — within error, 0.989 ± 0.024
- TTACGGTAAT — within error, 1.143 ± 0.0043
- TGGTCAAAAA — within error, 0.9972 ± 0.0036
- AATAAGGTTG — within error, 0.982 ± 0.04
- GAGCCCTCGG — within error, 0.999 ± 0.023
- TCAATTTAGG — within error, 0.966 ± 0.014
- CGACATCGCA — within error, 1.321 ± 0.0068
- CCTGGGCAAG — higher, 3.81 ± 0.36
- TCATAGGTCA — within error, 0.972 ± 0.024
- TCAGTTTTAC — within error, 1.01 ± 0.052
- GTTTGAGGGT — within error, 0.9939 ± 0.0087
- GGGGTACGAG — within error, 1.02 ± 0.033
- TAATTCGTCG — within error, 0.997 ± 0.018
- TTTGTCAGTA — within error, 0.989 ± 0.018
- TAGGGGGAAC — within error, 1.01 ± 0.022
- AATGTAAAAG — within error, 0.988 ± 0.039
- CGATTACTCC — higher, 2.82 ± 0.089
- AATATAAAGC — within error, 1.012 ± 0.0028
- CGTTGAGTCG — within error, 0.992 ± 0.06
- GTGAGAGGGG — within error, 1.008 ± 0.0069
- AAATGGGCTG — within error, 1 ± 0.09
- TTATCAAAGG — within error, 0.986 ± 0.014
- TAAATTGGTT — within error, 0.981 ± 0.0078
- TTTCTTTCAA — within error, 1.01 ± 0.021
- AATGATATCG — within error, 1.03 ± 0.013
- TCGGTGTCTA — within error, 0.985 ± 0.02
- AAGGGATGGC — within error, 1.03 ± 0.043
- GGGGGGGAAT — within error, 1 ± 0.045
- ATTTTGTGAT — within error, 0.994 ± 0.025
- ACGATACTTT — within error, 1.37 ± 0.015
- TTTTATTAAA — within error, 1 ± 0.031
- TCGAGCCTTT — within error, 0.9909 ± 0.0014
- GGGTTGTCCG — within error, 1.05 ± 0.07
- TCTAATACGG — within error, 1.04 ± 0.02
- AATCGTACGT — within error, 0.959 ± 0.04
- AGAGTTGGTC — within error, 1 ± 0.068
- GCCTGGACGA — within error, 1.04 ± 0.018
- CTATGAATTA — within error, 0.984 ± 0.024
- TTTGTTTATA — within error, 0.9992 ± 0.0034
- TTGCTAAGCG — within error, 1.02 ± 0.012
- CGGGGGGGAA — within error, 0.999 ± 0.03
- TCTTTTAAAG — within error, 0.988 ± 0.035
- GGGCTTGAAG — within error, 1.01 ± 0.017
- TGGTGGGATG — within error, 0.977 ± 0.021
- GCGGACCGGG — within error, 1.04 ± 0.031
- ACGGTGGTCG — lower, 0.913 ± 0.033
- GGAATGGGTA — within error, 0.997 ± 0.027
- AGTGGGTATA — within error, 1.01 ± 0.02
